Data taken from a protein production outcome set (Wang et al. 2014).

Assay: label from the status in PepcDB records
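Further: failed if final PepcDB status was selected cloned or expressed and not failed if soluble or beyond.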

Sequence	protein production
MSESVNKKITDGNYDKTLAVKCVNGTFVGKKTEGVIAYKGIPFVGQQPVGKLRWKAPVDVTPSNDVYEAYNYEKAPVQAPGDPAIENGMGEDCLYLNIWRADETVTEKKPVIVWIYGGGFEVGGTSDPQYDCHSLVKENPDVILVSLAYRVSFFGFMHLSHLSDGKDYQDAPNLGLLDQLMGLKWVHENIANFGGDPDNVTIWGESAGGASVTLLPLIKGSHQYFKRVIAQSGAPAQTRSEEQAIAITDHVMKELGCKTVADLLKVSAQEFADTWARLYGFYQVLGIRTFPERDGRCLPLNPWEAYANGAAKDITFLQGCNKDEMNTFLGSIGVDRWNAWANQRKAEKLIQLTDEEKALVESYCNDIQGESYEPTVRLFSQIMFQVPQIRLSEEQTKGGGKSYTYLFTPESSVPLIKCGHITELSALFNHPEITAFTGRAYDETFCKTMRKMWIQFAKTGNPSLTAEMSPDGKAKEWPLYDTEKKVMVLDEQNIHPAKESELKIVDWERTYFLTNYYMP	failed
MGIIAWIVFGFVIGLIARAVVPGKQSLGFVMTTLLGIAGSLIGGLVASAFAGTSGTTFQTAGFIGSLVGAIVLLVIAGMVTTPRRRTV	failed
MQAQDATQLLEGVPLPLVLIGPDERIRAANAPAQRLFGAASVARHYVMAMRQPALLDAIEGAIRLDRPGRARYIITGPSREVTYRATVTPVRIHGESCALCAFEDITEQEQMGAIRRDFVANVSHELRTPLTALLGFIETLQGAARDDPAARSRFLGIMAREAGRMNRLVQDLLSLSRVESEERVRPKTPVDVTAVIGQAIAALRPMAEAAGVEIQRQGEAGPILLPGDPDQLTQVFHNLIENAVKYGASGKLVTVGISRDAEGLARLGPAVRIEVVDRGEGIDAIHLPRLTERFYRVDNHRSREKGGTGLGLAIVKHIVNRHRGRFLIESELGQGSRFIVTLPLA	failed
MKKGRFKRNWPIILFGIIVFIFSFYFKISPKSLKNFTDIMSASLSFSAIVTAIFFASFSLIPTSGSNKLVVMMEDLGTEIKIMDRLLVATFLSFISSLLSFISLFFSKTDTDLISILVVSSWLSSTVMMFLSSFFVLRTLILLVETYNNFKNK	failed
MTELGTVLDGKYEILKKVGQGGMSIVYLAMDNRLNKQWAVKEIKNDGSKSTATLLKSLEREANILKDVDHPVLPRIVDIINENGTIYVVMDFVEGKPLSDVLKAEGAQDQNKVIEWGRALASALDYLHSMNPPIIYRDMKPSNVMLKPDGSVKLIDFGTAKEYIVENNADTTALGTRGYAAPEQFGDSQGRGIYNTDARTDIYNLGATLYHLVTGKNPCEPPYEIKPIRQWNPTLSSGFEQIIIKCCQPSPEDRYQSCSELLYALDHYNELDNEFKAKAKRKVAVFATMAGLSILSGCCAIFGGVKKGQLKEQDYNNKIAEAEDAVDSSDYNKAFECYKAAVDIDPTASEAYIGYMDTYAYYYTDEDVATGTGTETPAEKGIKFALRNIDKVKDDVKYEIALLYFNEVPDYSAARKYFNMVGDTENFANDVKQAKYYEAICDNKINKTADFNDSKQEVFDFQQYNSDNIDDTNTYKYVNYLNIATIYVDKLSSDEELANRTIELLQEASDKLNDNATVLSKEFPEERGVNYYSGQYSAILCSVYTYLAEKESDPVEQVAYYREAINSIDSYLSGLDMNGDAVTEKTKNVYAEYSRKKAEIYVSMGDISGDDKNYELAENVYLSAEQMLGVDDYSADLYTSHLTYLYNRYTDLYGSAPDTWDKSARNTVISVYNSGSRISMLADGKKPQWNTLIHKPVIEAIVSGTGSKTGK	failed
MKDSIDFGNMEIPRLFRKLLIPTVLGMVFSAVFVITDGIFVGKGIGSDALAAVNITAPLFMITTGIGLMFGVGASVVASIHLSQGKRKVASINITQALAFSALLILVLSALCCYFAEPIGRLLGSSERLLPLVVEYMNWYVPFLVFYLLLSAGMFYIRLDGSPNYAMMCNAVSAIINIILDYVFIFQLGWGMMGAAFATSLGTMVGGLMTLIYLLRFSRNVGIYRIKLSRKSMRLTCRNIGYMIRLGSSAFISEASIASMMFLGNYVFISHLGESGVAAFSIVCYFFPIIFMVYNAIAQSAQPIISYNFGQQNPGRVARTIRLALKTALGCGIFFFAATLVFNHQIVGLFIDKSYQAYDIAVNGIPYFAVGYLFFALNIVGIGYYQSIERARRATVITLFRGTLFMLAGFLLLPPVLGVRGIWLAVPLAELLTLLLIIGIYLKDSFAVRR	failed
MKSQFLLSVKEHMLTRYYANKTIESYLFWIKRFIVFHQFAHPSKLSEDDVIRFLSHLAIDEKVAVKTQALALNAISFLYRDFFKTPLSLDMRFQKSLTEKKLPVVLTRDEVRRFV	failed
MKKLILYTLILLLMSCRSTQEVDTSVYMDAKQPVDKRVEALLAQMTLEEKVGQMDMVTVWDKEAIFKNGYYDFGAWLADLEPEECNQLQKLSEQTRLKIPYLIGMDAAHGYAMLTGRTIFPTSISMAATFNRELIYRTTSKAGEEIRSSGIHWAFAPCIDIVQDARWGRTGETYGEDPFLTSELVKEAIRGYQGNENPFKKVAVSVKHLVGGGASVGGCNHASAELSERALRSYFLPPFKAAIEAGCMTIMPGHNDIAGVPVHASKWLLTDIIKQEYGFKGFFISDMGDVENLATSLHQIAENQKEAVCKSVNAGLDMHMYSADSARFVSPLVELVREKKVSSRRIDDAVRRILKIKFELGLFEKRYVSPEEDSYGSKENKALALEAAREAIVLLKNDRQILPLDRTKYKKILVTGPNADNQSILGDWSIFQPDDHVTTILEGIQAAASPEQSILYSNSGRIKAKKSDLSVNTTDPAIQKKLITEGGGISDYSIDDAVRKARQSDLAIVAIGGYGIRSEWGLRTYGESADRPSIDFYGRQLELVQAIHATGTPVVIVIVNGKPLNNEWITKNIPTIVDVWEPGMYGGQALAEILFGEVNPSGKLPITIPKHAGQIPMYYYQRPSRYWTGYGLGSSREDEKPAFCFGHGLSYTSYEYSGLKIDSVIPQTQDIEFTFTVKNTGNMAGKETALVFIRDCVSSVVTPVACLKGFEKVSLNPGESKDIRIVIPYSDLGLWNEDMKYVVESGKFNLMIGRSVEDIRIKKDFFIK	failed
MIEKVYCQEVKPELDGKKVRLAGWVYTNMRVGKKIFLWIRDSTGIVQAVVAKNVVGEETFEKAKKLGRESSVIVEGIVKADERAPGGAEVHVEKLEVIQAVSEFPIPENPEQASPELLLDYRHLHIRTPKASAIMKVKETLIMAAREWLLKDGWHEVFPPILVTGAVEGGATLFKLKYFDKYAYLSQSAQLYLEAAIFGLEKVWSLTPSFRAEKSRTRRHLTEFWHLELEAAWMDLWDIMKVEEELVSYMVQRTLELRKKEIEMFRDDLTTLKNTEPPFPRISYDEAIDILQSKGVNVEWGDDLGADEERVLTEEFDRPFFVYGYPKHIKAFYMKEDPNDPRKVLASDMLAPEGYGEIIGGSQREDDYDKLLNRILEEGMDPKDYEWYLDLRRYGSVPHSGFGLGVERLVAWVLKLDHIRWAALFPRTPARLYP	not failed
MKDSVDCPSILPTDRTSVLSETSTLVGSSSHVYSRHAPMNSYHNSMNSNIYHSPKASSPLVSYKTSSPVLLKRATAPVLPSFKPKEQRYNKPQGCSLITAVELGKIIETLPDEKVLLLDVRPFTEHAKSIITNSIHVCLPSTLLRRKNFTFSKLLDNLTPSEQSVLKSKLAIDNLRIIIYDSTANQTESSVSLPCYGIASKLIEFDTNVKKTVSILMCGFPQFKILFPDHINTNTFNSDCISSAEPKSPKTNLMNSLHNTAPHMTATTPLSSPQMNLKLKVPDDSRSDHSNFSSSPSPRNVLSDSPMSSSSPISALFKFQLPAPQTNINQMFKFSQNEEIMGLETYLSAVNIKEEHERWYNNDSAKKSLQNFQFPKNQNSLEKDTNKDKLGFQIRYENLSKNYEKEVIDSVIPEWFQHLMSIPKIELVSQFQKLDFLEKRRLNHSVSFRKKENSFILEKPSSYPEQLTSTSSSTIMPPKFPDVNKVQKRSHSQPIFTQYSKYKSMLSLESDSDSESDDVIISSGVELGAKNRYKDIFPYEHSRVILKKGLQSSKGIKHSHSTSDGGILDNYINANYLSLPRFSVEQNSSFQTTTTTTRRVRYIATQAPMPSTVHDFYTCILNNGVPLVLSLTNDFENGIEKCYRYWQEGNYNGIHVKLLEKKILKMPSTTSMRKNTMGTQNSSLYSAGVQGNSSNYSTDNDNDNDNNNNNNNNSNIPVTAAACDDDDDDDDDAILIRQILLTYHDQEKPYELLQIQVKNWPDLGTLLNPISILQAINVKNHIIDTLFARNYYQNDQLPTILVHCSAGCGRTGTLCTIDSILSNFEMFEMLQKEFVKLKYPAKLFDPISWTINIFRKERISMVQNINQFIFIYDCLLFYFRLRLDDITERTDGDGSNKDNISLSALIEQIEKLEILQTFVDDKLKELPQ	failed
MSSYSNELLMLIFRSMLCKQVLIFFAYSGLYYLVTYFMDKKIQHQKQFLLKLGLVKLKKRNKTRWEKIRWRMQLCLIVSILVLVVSTFVLNPDDQYILLVIYVMKLATFTSFAIAFVDSLGPIKEIQQLIVGAQSSDTLDSDKKVLTVTIFKKIRWMLILYQVLKVPALIIILTLSVDY	failed
MSGQADTATTAEARTPAHAAHHLVEGVARVLTKPRFRGWIHVYSAGTAVLAGASLVAVSWAVGSAKAGLTTLAYTAATITMFTVSATYHRVNWKSATARNWMKRADHSMIFVFIAGSYTPFALLALPAHDGRVVLSIVWGGAIAGILLKMCWPAAPRSVGVPLYLLLGWVAVWYTATILHNAGVTALVLLFVGGALYSIGGILYAVRWPDPWPTTFGYHEFFHACTAVAAICHYIAMWFVVF	failed
SKKPYIVTIACTKGGSAKSTNAANIGAFCADHGLRTLLIDTDTQPTLSSYYSLAKTAPGGIYEFLLQRDVEPSHIVSQTSIKNLDLIQSNDPSNNVSHMLRNAPDGSIRFSHLIKSINNYDVIVIDTRGTRDITVDMSVLAADILFCPILPQILSAKEFIRGTIGMYQDLQTFESFGFKLPPLKAIANGVDNTNDVKFVMQKLHTLFANTFDES	failed
MGHHKAMPYADVAAFIIELRKREAVAATALEFTILTAARSGETLGAKWHEIDWKDKIWTVPAERMKAAREHRVPLSSRTITILKKLAEFGSDENSFVFPGQKPGKPLSVMAMDMVLRRMEVDVTVHGFRSSFRDWCGEVSNFPRDVAEAALAHLEHHHHHH	not failed
MRYLIGGIFLLISIWQFIVTGRTFSYLKKEGGKRTSPFILLGLWSSLVFAIISFAVAIASFFYVSF	failed
MGSFDDVIGNHQADTAMIVQISADRKEINLVSIPRDSLVDVPQCETSKGTIPAQYNVMFNSIFAGAYKTGGDLSSAASCTLNAVNSLTGLNIQNFIVVDFAGLVKMIDSVGGVDLCIPQNVNDPYTGLNLDKGMHHLDGVAATQYARIRHGIGDGSDTSRTTRQQYLIKQLMSEALSKNLFTDTAQLYQLAKSALKSLNISQGMADTAALAGLAMSLKNFTMTNLQTQTVPVVPAPSDPNRSVWTDEADNLWEKMRAGKPIFDTADSNSGGSSDTSSDNSASSDDSGTTDSNQSDTTAETPDPVTGLITKSDGTLVDPSTGGTVDPDDGSIHDATTGQYIGLADRYLNATVCAVPAKNLEHHHHHH	not failed
MVEIIIPVGPNDKLEWVKRSVNSALLQSVDKVIIYDNSERADIYNFFQELKDKLVYIKDKRMTKVNMARLRNKMLSLASDKYVIMLDSDVVIPKNYSNNIINKLERGVAYTWIHYAYSEEEIEKPLSISENNPNLGCAGLNLEVIKRIGYFDERYERDEDVWLYAKLKKTGYKVEPAEGRCLHLNKVHARLNLSSSVAEARRNLWRSKYDIMLMFDGLTDFTFLTGYSYYGSYYILAILSVIFHPLTFLYLPLIGYGVYYYKGPKKYLLNLIPGLSLAISFPYGLGYNLIQKLK	failed
MEIGVSGASGQLGKAVLAELAARGAGHRVVGISRTPERVPAPAQGRLGDYDRAETLLQAYRGLDRLLLIPSADLGPGVRGRQFTAAIDAAVRAGVKHIVMVSTAGTRELAEPALGAAYWVGEQRLVKTAPRWTILRMNYYAESFAQQAPMFLGSGILPGLGENRVAFVSRDDVAAAAAGILLGEGHAGAIYNATGPVALSGAQRAALVAELSGKPLRFAVSDEAPLRQGLAQAGLPGGFVDAVIDLEKSFVAGAFDVVTGDVARLAGREPRALRTLLADSLRPAVADA	failed
MGSLMSGWDSRVRDPKSVRRCKSLTREEIDTFWKTKKKNEEEEHVQAFSKLVTQEGAQSQAKEKKSVDDLFENQSKSSGWWRKTYWAFLNEPREEEGRPNNYVSQFKVAHIAKIAGS	failed
